From patent US20230357429A1 (JANUX THERAPEUTICS, published 2023)
Numbering of substitutions follows the chain as printed. Numbers in names are those of the source. Like-named read-outs stand apart in the source and are kept apart here. Each block holds one binder with its values, some of them ahead of it. Where no end group is shown, it is not given here.

Tests used:
Cyno TROP2 Full length = target: T1, Cyno TROP2 Full length (cynomolgus monkey, UniProt P09758 31-323 (human entry)); experiment: cell-based or functional assay
T1 chain: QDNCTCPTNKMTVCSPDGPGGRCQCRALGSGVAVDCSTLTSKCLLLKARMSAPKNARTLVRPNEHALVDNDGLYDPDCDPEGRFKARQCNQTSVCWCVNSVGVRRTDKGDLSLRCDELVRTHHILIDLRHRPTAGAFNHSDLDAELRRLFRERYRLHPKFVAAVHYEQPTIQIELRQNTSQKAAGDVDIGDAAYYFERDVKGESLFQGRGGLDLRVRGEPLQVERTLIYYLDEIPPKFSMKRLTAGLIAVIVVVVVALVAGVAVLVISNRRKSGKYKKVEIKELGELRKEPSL

Human TROP2 Full length = target: T2, Human TROP2 Full length (human, UniProt P09758 31-323); experiment: cell-based or functional assay
T2 sequence: T1 chain with V32M, N63S, V200I, V262M, S268T

[1] = target: T3, Human TROP2 ECD (31-274 AA), biotinylated (human, UniProt P09758 31-274, biotinylated (site not stated)); experiment: ELISA on immobilized TROP2; binder pre-treated with MTSP1
T3 construct: also called tumor-associated calcium signal transducer 2; Human TROP2-biotin
T3 sequence: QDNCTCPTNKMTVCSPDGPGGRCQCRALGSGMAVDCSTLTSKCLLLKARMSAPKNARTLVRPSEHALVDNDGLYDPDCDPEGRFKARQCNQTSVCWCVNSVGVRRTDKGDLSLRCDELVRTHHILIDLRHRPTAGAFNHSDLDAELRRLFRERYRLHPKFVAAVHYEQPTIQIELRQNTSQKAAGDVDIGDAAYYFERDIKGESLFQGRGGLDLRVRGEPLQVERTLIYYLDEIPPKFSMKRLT

[2] = target: T3, Human TROP2 ECD (31-274 AA), …; experiment: as above; remark: listed apart in the source
Peptide-73 [3] = target: T4, Peptide-73 (cysteine pairing not given here; also: biotinylated, site not given here); experiment: ELISA, TCE on captured biotin-peptide
T4 construct: mask peptide for the CD3 scFv
T4 peptide: VYCGPEFDESVGCA

[4] = target: T5, CD3 (biotinylated CD3 antigen) (human, UniProt P07766 23-126, limits assumed, biotinylated (site not stated)); experiment: ELISA, TCE on captured biotin-CD3
T5 construct: also called CD3ε; human CD3

Peptide-66 = target: T6, Peptide-66 (cysteine pairing not given here; also: biotinylated, site not given here); experiment: ELISA, TCE on captured biotin-peptide
T6 construct: mask peptide for the CD3 scFv
T6 peptide: GSQCLGPEWEVCPY

Peptide-74 = target: T7, Peptide-74 (cysteine pairing not given here; also: biotinylated, site not given here); experiment: ELISA, TCE on captured biotin-peptide
T7 construct: mask peptide for the CD3 scFv
T7 peptide: ASQCLGPEWEVCPY

Peptide-69 = target: T8, Peptide-69 (cysteine pairing not given here; also: biotinylated, site not given here); experiment: ELISA, TCE on captured biotin-peptide
T8 construct: mask peptide for the CD3 scFv
T8 peptide: SECLVDLQSDPCYW

Peptide-72 = target: T9, Peptide-72 (cysteine pairing not given here; also: biotinylated, site not given here); experiment: ELISA, TCE on captured biotin-peptide
T9 construct: mask peptide for the CD3 scFv
T9 peptide: AYCGPEFDESVGCM

Peptide-68 = target: T10, Peptide-68 (cysteine pairing not given here; also: biotinylated, site not given here); experiment: ELISA, TCE on captured biotin-peptide
T10 construct: mask peptide for the CD3 scFv
T10 peptide: DWCWYSPDNDGLCD

Peptide-75 = target: T11, Peptide-75 (cysteine pairing not given here; also: biotinylated, site not given here); experiment: ELISA, TCE on captured biotin-peptide
T11 construct: mask peptide for the CD3 scFv
T11 peptide: GSACLGPEWEVCPY

Peptide-67 = target: T12, Peptide-67 (cysteine pairing not given here; also: biotinylated, site not given here); experiment: ELISA, TCE on captured biotin-peptide
T12 construct: mask peptide for the CD3 scFv
T12 peptide: VYCGPEFDESVGCM

Peptide-71 = target: T13, Peptide-71 (cysteine pairing not given here; also: biotinylated, site not given here); experiment: ELISA, TCE on captured biotin-peptide
T13 construct: mask peptide for the CD3 scFv
T13 peptide: VDCGPDGDESILCY

Peptide-70 [5] = target: T14, Peptide-70 (cysteine pairing not given here; also: biotinylated, site not given here); experiment: ELISA, TCE on captured biotin-peptide
T14 construct: mask peptide for the CD3 scFv
T14 peptide: YLCGPDGDETLACY

[6] = target: T5, CD3 (biotinylated CD3 antigen); experiment: ELISA: biotinylated CD3 captured on neutravidin plates, TCE titrated, HRP secondary antibody
[7] = target: T15, Human TROP2 ECD (31-274 AA), biotinylated (human, UniProt P09758 31-274, biotinylated (site not stated)); experiment: ELISA, captured biotin-TROP2
T15 construct: also called TROP2-biotin; Trop2-biotin
T15 sequence: T3 sequence

Peptide-77 = target: T16, Peptide-77 (cysteine pairing not given here; also: biotinylated, site not given here); experiment: ELISA, TCE on captured biotin-peptide
T16 construct: mask peptide for the CD3 scFv
T16 peptide: YLCGPDTDETLACY

Peptide-76 = target: T17, Peptide-76 (cysteine pairing not given here; also: biotinylated, site not given here); experiment: ELISA, TCE on captured biotin-peptide
T17 construct: mask peptide for the CD3 scFv
T17 peptide: YLCGPDADETLACY

Peptide-70 [8] = target: T14, Peptide-70; experiment: ELISA, TCE on captured biotin-peptide
Peptide-73 [9] = target: T4, Peptide-73; experiment: ELISA, TCE on captured biotin-peptide
[10] = target: T3, Human TROP2 ECD (31-274 AA), …; experiment: ELISA on immobilized TROP2
[11] = target: T5, CD3 (biotinylated CD3 antigen); experiment: ELISA, captured biotin-CD3
[12] = target: T15, Human TROP2 ECD (31-274 AA), …; experiment: ELISA, captured biotin-TROP2; remark: listed apart in the source

T5 sequence (P07766 23-126 limits assumed): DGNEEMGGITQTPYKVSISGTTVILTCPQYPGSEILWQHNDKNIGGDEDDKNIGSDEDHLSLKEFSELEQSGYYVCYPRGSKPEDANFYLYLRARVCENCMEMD

EC50 (Peptide-73 [3]): 0.35 nM
B4: TCE-27 (anti-CD3 scFv Y234A; anti-TROP2 wt) (bispecific antibody)
light: DIQLTQSPSSLSASVGDRVSITCKASQDVSIAVAWYQQKPGKAPKLLIYSASYRYTGVPDRFSGSGSGTDFTLTISSLQPEDFAVYYCQQHYITPLTFGAGTKVEIKRTVAAPSVFIFPPSDEQLKSGTASVVCLLNNFYPREAKVQWKVDNALQSGNSQESVTEQDSKDSTYSLSSTLTLSKADYEKHKVYACEVTHQGLSSPVTKSFNRGEC
heavy: not shown
notes: scFv on the Fab heavy chain

EC50 [4]: 24 nM
EC50 (Peptide-73 [3]): 7.03 nM
EC50 (Peptide-66): 6.34 nM
EC50 (Peptide-74): 5.33 nM
EC50 (Peptide-69): 0.29 nM
EC50 (Peptide-72): 5.66 nM
EC50 (Peptide-68): 2.29 nM
EC50 (Peptide-75): 7.08 nM
EC50 (Peptide-67): 5.96 nM
EC50 (Peptide-71): 112 nM
EC50 (Peptide-70 [5]): 8 nM
EC50 [6]: 8.65 nM
B5: TCE-31 (anti-CD3 scFv W238A; anti-TROP2 wt) (bispecific antibody)
light: B4 light
heavy: not shown
notes: scFv on the Fab heavy chain; also called TCE-31 (W238A)

EC50 [7]: 5.92 nM
EC50 (Peptide-77): 18.8 nM
EC50 (Peptide-76): 1.39 nM
EC50 (Peptide-70 [8]): 0.33 nM
EC50 (Peptide-73 [9]): 0.41 nM
B6: TCE-39 (anti-CD3 scFv P41S, A49G, N87S, L150F, T151S, G163R, P175A, K181T, T200V, A202D, L208I, G211N, L217I, S218T, V220A, P222A, E223D, A226S, E227D; … (bispecific antibody)
light: B4 light
heavy: EVQLVESGGGLVQPGGSLKLSCAASGFTFNKYAMNWVRQASGKGLEWVGRIRSKYNNYATYYADSVKDRFTISRDDSKNTAYLQMNSLKTEDTAVYYCVRHGNFGNSYISYWAYWGQGTLVTVSSGGGGSGGGGSGGGGSQTVVTQEPSFSVSPGGTVTLTCRSSTGAVTSGNYANWVQQTPGQAPRGLIGGTKFLAPGVPDRFSGSILGNKAALTITGAQADDESDYYCVLWYSNRWVFGGGTKLTVLGGGGSQVQLQQSGSELKKPGASVKVSCKASGYTFTNYGMNWVKQAPGQGLKWMGWINTYTGEPTYTDDFKGRFAFSLDTSVSTAYLQISSLKADDTAVYFCARGGFGSSYWYADVWGQGSLVTVSSASTKGPSVFPLAPSSKSTSGGTAALGCLVKDYFPEPVTVSWNSGALTSGVHTFPAVLQSSGLYSLSSVVTVPSSSLGTQTYICNVNHKPSNTKVDKKVEPKSC
notes: scFv on the Fab heavy chain

Further lines, the binder ahead of its results:

B1: TCE-8 (bispecific antibody)
light: B4 light
heavy: not shown
CyTROP2 HEK293 EC50 (pM) (Cyno TROP2 Full length): 0.1 pM
HCT116 Cytotoxicity EC50 (pM) (Human TROP2 Full length): 83 pM

B2: PC-1 + MTSP1 (bispecific antibody)
light: B4 light
chain: not shown
modifications: Protease-treated product: both masks and the anti-albumin domain are cut off in the cleavable linkers.
notes: not shown: The few linker residues left at the N-terminus of each chain after the MTSP1 cut
EC50 [1]: 0.48 nM

B3: PC-5 + MTSP1 (bispecific antibody)
light: B4 light
chain: not shown
modifications: Protease-treated product: both masks and the anti-albumin domain are cut off in the cleavable linkers.
notes: as for B2
EC50 [2]: 0.25 nM

B7: PC-1 (bispecific antibody)
light: GGVDFCKIYSWPVCHQGGGGSGGLSGRSDAGSPLGLAGSGGSDIQLTQSPSSLSASVGDRVSITCKASQDVSIAVAWYQQKPGKAPKLLIYSASYRYTGVPDRFSGSGSGTDFTLTISSLQPEDFAVYYCQQHYITPLTFGAGTKVEIKRTVAAPSVFIFPPSDEQLKSGTASVVCLLNNFYPREAKVQWKVDNALQSGNSQESVTEQDSKDSTYSLSSTLTLSKADYEKHKVYACEVTHQGLSSPVTKSFNRGEC
heavy: not shown
notes: anti-TROP2 wt
EC50 [10]: 49.4 nM

B8: PC-31 (anti-TROP2 D109A; anti-CD3 F104A), masked polypeptide complex (bispecific antibody)
light: B7 light with K7G, I8L, S10H, V13I, H15Y
heavy: not shown
notes: LC: TROP2 mask peptide + cleavable linker + anti-TROP2 LC; HC: anti-albumin single domain + CD3 mask peptide + cleavable linker + anti-CD3 scFv + anti-TROP2 Fab HC
EC50 [11]: 1080 nM
EC50 [12]: 694 nM
